Assay results taken from patent US20230405119A1 (CITY OF HOPE, published 2023).

T1: immobilized IL13Rα2 (UniProt Q14627 27-343, limits assumed)
T1 construct: also called IL13Ra2
T1 sequence (looked up): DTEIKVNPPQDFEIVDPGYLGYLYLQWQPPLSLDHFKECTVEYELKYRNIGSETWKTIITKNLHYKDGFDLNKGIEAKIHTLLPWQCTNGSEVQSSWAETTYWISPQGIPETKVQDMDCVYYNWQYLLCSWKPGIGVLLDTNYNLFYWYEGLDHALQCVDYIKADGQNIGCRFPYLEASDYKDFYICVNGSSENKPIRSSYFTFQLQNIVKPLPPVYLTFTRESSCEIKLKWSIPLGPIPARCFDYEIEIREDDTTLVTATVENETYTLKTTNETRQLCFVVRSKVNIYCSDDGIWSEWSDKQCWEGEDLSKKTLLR

T2: immobilized recombinant IL13Rα1 (UniProt P78552 22-343, limits assumed)
T2 construct: also called IL13Ra1
T2 sequence (looked up): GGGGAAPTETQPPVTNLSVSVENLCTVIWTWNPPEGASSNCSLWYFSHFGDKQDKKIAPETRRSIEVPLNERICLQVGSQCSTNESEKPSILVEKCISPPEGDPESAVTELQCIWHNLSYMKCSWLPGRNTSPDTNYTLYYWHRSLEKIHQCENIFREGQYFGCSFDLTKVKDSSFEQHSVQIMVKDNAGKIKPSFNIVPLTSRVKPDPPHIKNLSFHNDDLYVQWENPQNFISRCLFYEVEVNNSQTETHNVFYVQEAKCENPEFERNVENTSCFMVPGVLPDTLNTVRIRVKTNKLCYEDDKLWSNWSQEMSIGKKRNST


What was measured:
[1] = target: T1, immobilized IL13Rα2; test: yeast-displayed IL13; surface plasmon resonance with immobilized recombinant receptor, as the filing words it
Excerpt: (§1) In an effort to identify IL13 variants with increased selectivity for binding IL13Rα2 relative to IL13Rα1. To assess receptor binding various mutants were compared to wild-type IL13 ([…] […]; SEQ ID NO: 1) and the previously known […] E11Y mutant ([…] […]; SEQ ID NO: 69). […] Surface plasmon resonance with immobilized recombinant IL13Rα1 and immobilized IL13Rα2 was used to assess binding affinity. As expected, WT bound strongly to both IL13Rα1 and IL13Rα2.

[2] = target: T2, immobilized recombinant IL13Rα1; test: yeast-displayed IL13 variant; surface plasmon resonance with immobilized recombinant receptor, as the filing words it
Excerpt: as §1

| Binder | Kd [1] [nM] | binding result [2] |
| --- | --- | --- |
| IL13 variant RLK (E11R: E90L: R107K) (ligand, display scaffold not described) GPVPPSTALRRLIEELVNITQNQKAPLCNGSMVWSINLTAGMYCAALESLINVSGCSAIEKTQRMLSGFCPHKVSAGQFSSLHVRDTKILVAQFVKDLLLHLKKLFKEGRFN | 28 | no binding |
| IL13 variant YLK (E11Y: E90L: R107K) (ligand, display scaffold not described) GPVPPSTALRYLIEELVNITQNQKAPLCNGSMVWSINLTAGMYCAALESLINVSGCSAIEKTQRMLSGFCPHKVSAGQFSSLHVRDTKILVAQFVKDLLLHLKKLFKEGRFN | 26 | no binding |
